Reference: paper PMC10397247

Columns and labels:
4H56-bH = biological target: T1, 4H56-bH; test: two-hybrid library CCNG1;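 note: natural log of median RNA to DNA barcode read ratio; higher means stronger binding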
T1 chain: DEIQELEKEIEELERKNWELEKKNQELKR

4H730-bH = biological target: T2, 4H730-bH; test: two-hybrid library CCNG1;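 note: natural log of median RNA to DNA barcode read ratio; higher means stronger binding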
T2 chain: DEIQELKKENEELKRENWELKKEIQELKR

4H796-bH = biological target: T3, 4H796-bH; test: two-hybrid library CCNG1;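 note: natural log of median RNA to DNA barcode read ratio; higher means stronger binding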
T3 chain: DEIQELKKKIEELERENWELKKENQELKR

4H932-bH = biological target: T4, 4H932-bH; test: two-hybrid library CCNG1;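 note: natural log of median RNA to DNA barcode read ratio; higher means stronger binding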
T4 chain: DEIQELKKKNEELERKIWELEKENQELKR

4H949-bH = biological target: T5, 4H949-bH; test: two-hybrid library CCNG1;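 note: natural log of median RNA to DNA barcode read ratio; higher means stronger binding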
T5 chain: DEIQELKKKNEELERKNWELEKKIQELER

4H462-bN = biological target: T6, 4H462-bN; test: two-hybrid library CCNG1;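 note: natural log of median RNA to DNA barcode read ratio; higher means stronger binding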
T6 chain: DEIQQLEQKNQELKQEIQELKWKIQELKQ

4H568-bN = biological target: T7, 4H568-bN; test: two-hybrid library CCNG1
T7 chain: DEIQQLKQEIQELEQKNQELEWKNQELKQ

4H607-bN = biological target: T8, 4H607-bN; test: two-hybrid library CCNG1
T8 chain: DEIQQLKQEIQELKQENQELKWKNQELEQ

4H687-bN = biological target: T9, 4H687-bN; test: two-hybrid library CCNG1
T9 chain: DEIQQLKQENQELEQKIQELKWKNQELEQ

4H72-bN = biological target: T10, 4H72-bN; test: two-hybrid library CCNG1
T10 chain: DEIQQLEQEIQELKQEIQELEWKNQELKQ

4H797-bN = biological target: T11, 4H797-bN; test: two-hybrid library CCNG1
T11 chain: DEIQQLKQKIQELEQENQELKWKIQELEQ

4H883-bN = biological target: T12, 4H883-bN; test: two-hybrid library CCNG1
T12 chain: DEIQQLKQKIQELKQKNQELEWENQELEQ

4H918-bN = biological target: T13, 4H918-bN; test: two-hybrid library CCNG1
T13 chain: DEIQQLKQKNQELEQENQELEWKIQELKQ

4H953-bN = biological target: T14, 4H953-bN; test: two-hybrid library CCNG1
T14 chain: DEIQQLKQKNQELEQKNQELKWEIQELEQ

4H967-bN = biological target: T15, 4H967-bN; test: two-hybrid library CCNG1
T15 chain: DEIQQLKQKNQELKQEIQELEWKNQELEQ

4H2575-AA = biological target: T16, 4H2575-AA; test: two-hybrid library CCmax
T16 chain: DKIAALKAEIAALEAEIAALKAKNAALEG

4H2617-AA = biological target: T17, 4H2617-AA; test: two-hybrid library CCmax; conditions: mean of both orientations
T17 chain: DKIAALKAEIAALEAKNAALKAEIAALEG

4H2642-AA = biological target: T18, 4H2642-AA; test: two-hybrid library CCmax; conditions: mean of both orientations
T18 chain: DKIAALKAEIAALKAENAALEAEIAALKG

4H2729-AA = biological target: T19, 4H2729-AA; test: two-hybrid library CCmax; conditions: mean of both orientations
T19 chain: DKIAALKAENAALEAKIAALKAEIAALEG

4H2754-AA = biological target: T20, 4H2754-AA; test: two-hybrid library CCmax; conditions: mean of both orientations
T20 chain: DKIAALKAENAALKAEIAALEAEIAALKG

4H2837-AA = biological target: T21, 4H2837-AA; test: two-hybrid library CCmax; conditions: mean of both orientations
T21 chain: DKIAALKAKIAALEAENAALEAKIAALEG

4H2944-AA = biological target: T22, 4H2944-AA; test: two-hybrid library CCmax; conditions: mean of both orientations
T22 chain: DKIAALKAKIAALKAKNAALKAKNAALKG

4H2949-AA = biological target: T23, 4H2949-AA; test: two-hybrid library CCmax; conditions: mean of both orientations
T23 chain: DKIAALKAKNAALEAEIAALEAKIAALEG

4H3112-AA = biological target: T24, 4H3112-AA; test: two-hybrid library CCmax; conditions: mean of both orientations
T24 chain: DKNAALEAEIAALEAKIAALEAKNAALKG

4H317-AA = biological target: T25, 4H317-AA; test: two-hybrid library CCmax; conditions: mean of both orientations
T25 chain: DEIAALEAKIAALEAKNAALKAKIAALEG

4H3343-AA = biological target: T26, 4H3343-AA; test: two-hybrid library CCmax; conditions: mean of both orientations
T26 chain: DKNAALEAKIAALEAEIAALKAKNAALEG

4H335-AA = biological target: T27, 4H335-AA; test: two-hybrid library CCmax; conditions: mean of both orientations
T27 chain: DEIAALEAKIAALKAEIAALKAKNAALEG

4H342-AA = biological target: T28, 4H342-AA; test: two-hybrid library CCmax; conditions: mean of both orientations
T28 chain: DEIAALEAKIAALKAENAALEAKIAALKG

4H3427-AA = biological target: T29, 4H3427-AA; test: two-hybrid library CCmax; conditions: mean of both orientations
T29 chain: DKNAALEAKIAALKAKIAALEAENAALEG

4H3627-AA = biological target: T30, 4H3627-AA; test: two-hybrid library CCmax; conditions: mean of both orientations
T30 chain: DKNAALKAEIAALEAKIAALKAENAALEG

4H3655-AA = biological target: T31, 4H3655-AA; test: two-hybrid library CCmax; conditions: mean of both orientations
T31 chain: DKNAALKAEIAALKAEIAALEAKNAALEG

4H3844-AA = biological target: T32, 4H3844-AA; test: two-hybrid library CCmax; conditions: mean of both orientations
T32 chain: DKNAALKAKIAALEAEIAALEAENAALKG

4H3921-AA = biological target: T33, 4H3921-AA; test: two-hybrid library CCmax; conditions: mean of both orientations
T33 chain: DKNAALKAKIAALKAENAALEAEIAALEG

4H429-AA = biological target: T34, 4H429-AA; test: two-hybrid library CCmax; conditions: mean of both orientations
T34 chain: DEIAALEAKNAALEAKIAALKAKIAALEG

4H454-AA = biological target: T35, 4H454-AA; test: two-hybrid library CCmax; conditions: mean of both orientations
T35 chain: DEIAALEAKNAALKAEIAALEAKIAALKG

4H566-AA = biological target: T36, 4H566-AA; test: two-hybrid library CCmax; conditions: mean of both orientations
T36 chain: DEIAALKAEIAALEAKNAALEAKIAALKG

4H605-AA = biological target: T37, 4H605-AA; test: two-hybrid library CCmax; conditions: mean of both orientations
T37 chain: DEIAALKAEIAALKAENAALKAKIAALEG

4H678-AA = biological target: T38, 4H678-AA; test: two-hybrid library CCmax; conditions: mean of both orientations
T38 chain: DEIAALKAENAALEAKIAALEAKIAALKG

4H717-AA = biological target: T39, 4H717-AA; test: two-hybrid library CCmax; conditions: mean of both orientations
T39 chain: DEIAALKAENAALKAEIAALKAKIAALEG

4H780-AA = biological target: T40, 4H780-AA; test: two-hybrid library CCmax; conditions: mean of both orientations
T40 chain: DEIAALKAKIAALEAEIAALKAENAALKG

4H794-AA = biological target: T41, 4H794-AA; test: two-hybrid library CCmax; conditions: mean of both orientations
T41 chain: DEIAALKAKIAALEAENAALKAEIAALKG

4H881-AA = biological target: T42, 4H881-AA; test: two-hybrid library CCmax
T42 chain: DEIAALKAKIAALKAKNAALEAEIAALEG

4H906-AA = biological target: T43, 4H906-AA; test: two-hybrid library CCmax; conditions: mean of both orientations
T43 chain: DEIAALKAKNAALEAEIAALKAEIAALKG

4H993-AA = biological target: T44, 4H993-AA; test: two-hybrid library CCmax; conditions: mean of both orientations
T44 chain: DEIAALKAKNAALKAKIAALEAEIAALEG

4H477-bH = biological target: T45, 4H477-bH; test: two-hybrid library CCNG1
T45 chain: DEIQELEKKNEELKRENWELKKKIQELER

4H492-bH = biological target: T46, 4H492-bH; test: two-hybrid library CCNG1
T46 chain: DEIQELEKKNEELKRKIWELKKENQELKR

4H741-bH = biological target: T47, 4H741-bH; test: two-hybrid library CCNG1
T47 chain: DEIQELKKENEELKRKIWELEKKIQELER

Binder: DEIQELEKEIEELERKNWELEKKNQELKR [4H56-bH]
- interaction score (4H56-bH): -0.661
- interaction score (4H730-bH): -0.307
- interaction score (4H796-bH): 0.682
- interaction score (4H932-bH): -0.0294
- interaction score (4H949-bH): -1.15

Binder: DEIQQLEQKNQELKQEIQELKWKIQELKQ [4H462-bN]
- interaction score (4H462-bN): -0.578
- interaction score (4H568-bN): 0.685
- interaction score (4H607-bN): 0.42
- interaction score (4H687-bN): -0.147
- interaction score (4H72-bN): -0.825
- interaction score (4H797-bN): -0.297
- interaction score (4H883-bN): -1.4
- interaction score (4H918-bN): -1.19
- interaction score (4H953-bN): -0.25
- interaction score (4H967-bN): -0.954

Binder: DKIAALKAEIAALEAEIAALKAKNAALEG [4H2575-AA]
- interaction score (4H2575-AA): 1.9
- interaction score (4H2617-AA): 0.75
- interaction score (4H2642-AA): -1.2
- interaction score (4H2729-AA): 0.467
- interaction score (4H2754-AA): -1.28
- interaction score (4H2837-AA): -1.05
- interaction score (4H2944-AA): -0.604
- interaction score (4H2949-AA): -0.954
- interaction score (4H3112-AA): -0.383
- interaction score (4H317-AA): 0.149
- interaction score (4H3343-AA): -0.0872
- interaction score (4H335-AA): 1.88
- interaction score (4H342-AA): 1.14
- interaction score (4H3427-AA): 0.849
- interaction score (4H3627-AA): 0.318
- interaction score (4H3655-AA): -0.814
- interaction score (4H3844-AA): -0.532
- interaction score (4H3921-AA): -1.45
- interaction score (4H429-AA): -0.196
- interaction score (4H454-AA): 1.03
- interaction score (4H566-AA): -1.21
- interaction score (4H605-AA): -1.27
- interaction score (4H678-AA): -0.968
- interaction score (4H717-AA): -1.25
- interaction score (4H780-AA): 0.14
- interaction score (4H794-AA): -1.27
- interaction score (4H881-AA): -0.902
- interaction score (4H906-AA): -1.56
- interaction score (4H993-AA): -0.15

Binder: DEIQELEKKNEELKRENWELKKKIQELER [4H477-bH]
- interaction score (4H477-bH): 0.526
- interaction score (4H492-bH): -1.31
- interaction score (4H741-bH): -0.234
